Assay results published in publication PMC6271277, “^68Ga-Labeled Cyclic NGR Peptide for MicroPET Imaging of CD13 Receptor Expression” (Molecules, 2014).

Legend:
physchem = type: physicochemical; settings: pH 7.4
Procedure: The octanol–water partition coefficient value was determined by measuring the distribution (logD) of radioactivity in octanol and PBS. Approximately 5 KBq of ^68Ga- NOTA-G3-NGR (2 μL) was added to a vial containing 0.5 mL of octanol and 0.5 mL of PBS (pH = 7.4). The mixture was then vortexed vigorously for 15 min. Subsequently, the mixture was centrifuged at 12,500 rpm for 5 min to ensure the complete separation of layers. Aliquots of the aqueous and octanol layers were collected, measured in a gamma counter (Beijing PET CO., Ltd., Beijing, China). The octanol–water partition coefficient value was then calculated (n = 5).

CD13 receptor = molecular target: T1, CD13 receptor (Homo sapiens, UniProt P15144); assay: Cell-based competitive binding assay against ^125I-NGR; settings: HT-1080 cells, competitor 10^-12 to 10^-5 M, gamma counter, n = 3; read-out: IC50, inhibition of ^125I-NGR binding to CD13 receptor
T1 construct: endogenous in cells; host or cells: HT-1080 human fibrosarcoma cells
Procedure: In vitro CD13 binding affinity and specificity of NOTA-G3-NGR were tested by a cell-based competitive assay. The binding of ^125I-NGR to CD13 receptors in HT-1080 cells can be inhibited by NOTA-G3-NGR in a dose-dependent manner (Figure 1b).
In vitro CD13 receptor binding affinity and specificity of NOTA-G3-NGR in HT-1080 cells were assessed using a cell-based competitive assay. ^125I-labeled linear NGR peptide (sequence H-Tyr-Gly-Gly-Cys-Asn-Gly-Arg-Cys-OH) was prepared using the Iodogen method and used as the radioligand for CD13. The non-radiolabeled NOTA-G3-NGR peptide (concentrations at a range from 10^−12 to 10^−5 M) was co-incubated with ^125I-NGR in HT-1080 cells. After washing with ice-cold binding buffer three times, the HT-1080 cells were lysed in 200 µL of lysis buffer. The cell-associated radioactivity was then measured using a gamma counter (Beijing PET CO., Ltd., Beijing, China). The IC50 (50% inhibitory concentration) value was obtained by fitting the data using nonlinear regression with GraphPad Prism (GraphPad Software, San Diego, CA, USA). Experiments were performed in triplicate.

T1 sequence (P15144 whole entry): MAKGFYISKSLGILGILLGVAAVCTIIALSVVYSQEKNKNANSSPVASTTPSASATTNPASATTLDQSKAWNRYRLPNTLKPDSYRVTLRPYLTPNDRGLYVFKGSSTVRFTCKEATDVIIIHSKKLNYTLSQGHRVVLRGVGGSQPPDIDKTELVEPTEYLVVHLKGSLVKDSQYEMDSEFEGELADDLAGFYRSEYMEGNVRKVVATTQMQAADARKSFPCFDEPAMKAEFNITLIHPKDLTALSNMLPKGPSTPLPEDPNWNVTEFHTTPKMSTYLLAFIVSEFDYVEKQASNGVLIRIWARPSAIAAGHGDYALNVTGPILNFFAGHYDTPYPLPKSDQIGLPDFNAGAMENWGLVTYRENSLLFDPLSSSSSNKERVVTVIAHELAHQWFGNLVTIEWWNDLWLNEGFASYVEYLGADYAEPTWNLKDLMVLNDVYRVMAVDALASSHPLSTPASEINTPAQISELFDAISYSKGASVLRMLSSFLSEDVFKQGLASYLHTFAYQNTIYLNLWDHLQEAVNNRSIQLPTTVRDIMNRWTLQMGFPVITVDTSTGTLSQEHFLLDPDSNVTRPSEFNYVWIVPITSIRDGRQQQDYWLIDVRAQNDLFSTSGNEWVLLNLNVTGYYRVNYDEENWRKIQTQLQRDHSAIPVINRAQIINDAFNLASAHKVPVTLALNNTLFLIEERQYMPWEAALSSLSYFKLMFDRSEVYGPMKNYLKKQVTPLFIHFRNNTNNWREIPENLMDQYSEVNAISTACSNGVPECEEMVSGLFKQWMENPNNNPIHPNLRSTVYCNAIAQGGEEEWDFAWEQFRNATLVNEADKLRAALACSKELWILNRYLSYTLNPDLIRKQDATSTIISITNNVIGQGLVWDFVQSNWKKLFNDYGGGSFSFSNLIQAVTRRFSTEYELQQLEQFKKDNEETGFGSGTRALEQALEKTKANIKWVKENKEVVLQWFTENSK

IC50 (CD13 receptor) [nM] | Structure (SMILES) | logD (physchem)
– | N=C(N)NCCC[C@@H]1NC(=O)CNC(=O)[C@H](CC(N)=O)NC(=O)[C@@H](NC(=O)CNC(=O)CNC(=O)CNC(=S)Nc2ccc(CC3CN(CC(=O)O)CCN(CC(=O)O)CCN3CC(=O)O)cc2)CSSC[C@@H](C(=O)O)NC1=O (some centres unmarked) [^68Ga-NOTA-G3-NGR, metal not drawn] | -2.25 ± 0.17
74.7 ± 3.91 | N=C(N)NCCC[C@@H]1NC(=O)CNC(=O)[C@H](CC(N)=O)NC(=O)[C@@H](NC(=O)CNC(=O)CNC(=O)CNC(=S)Nc2ccc(CC3CN(CC(=O)O)CCN(CC(=O)O)CCN3CC(=O)O)cc2)CSSC[C@@H](C(=O)O)NC1=O (some centres unmarked) [NOTA-G3-NGR] | –
